Test [1] has as its target IgG (coated control antigen). Briefly: phage ELISA, IgG coated, A650. On the technique in general: In an ELISA, binding on a coated surface is turned into a signal by an enzyme label.
The target of test [2] is T1, 人血清白蛋白 (human serum albumin) (human, UniProt P02768 25-609).
T1 construct: also called HSA
Put plainly: ELISA, HSA coated, A650.

The target of test [3] is T2, 牛血清白蛋白 (bovine serum albumin) (bovine, UniProt P02769 25-607).
T2 construct: also called BSA
Briefly: ELISA, antigen coated, purified HF11-FC, A650.

Test [4] addresses T1, 人血清白蛋白 (human serum albumin). Briefly: phage ELISA, HSA coated, A650.

Bounds are passed on as bounds.

T1 sequence (P02768 25-609 limits assumed): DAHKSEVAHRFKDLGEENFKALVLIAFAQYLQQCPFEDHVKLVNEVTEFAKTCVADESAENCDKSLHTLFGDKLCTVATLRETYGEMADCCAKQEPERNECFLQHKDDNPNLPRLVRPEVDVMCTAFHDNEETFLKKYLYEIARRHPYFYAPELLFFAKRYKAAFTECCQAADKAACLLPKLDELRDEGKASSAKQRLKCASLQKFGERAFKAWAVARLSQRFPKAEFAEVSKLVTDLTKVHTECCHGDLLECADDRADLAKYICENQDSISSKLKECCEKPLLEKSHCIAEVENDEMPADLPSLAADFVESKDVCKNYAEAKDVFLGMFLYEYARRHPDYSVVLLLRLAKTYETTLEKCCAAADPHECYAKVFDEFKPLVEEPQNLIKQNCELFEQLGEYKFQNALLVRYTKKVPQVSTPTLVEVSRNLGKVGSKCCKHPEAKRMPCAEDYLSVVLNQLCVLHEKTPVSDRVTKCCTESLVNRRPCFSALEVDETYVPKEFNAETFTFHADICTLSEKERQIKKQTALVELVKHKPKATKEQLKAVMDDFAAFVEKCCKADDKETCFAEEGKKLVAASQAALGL
T2 sequence (P02769 25-607 limits assumed): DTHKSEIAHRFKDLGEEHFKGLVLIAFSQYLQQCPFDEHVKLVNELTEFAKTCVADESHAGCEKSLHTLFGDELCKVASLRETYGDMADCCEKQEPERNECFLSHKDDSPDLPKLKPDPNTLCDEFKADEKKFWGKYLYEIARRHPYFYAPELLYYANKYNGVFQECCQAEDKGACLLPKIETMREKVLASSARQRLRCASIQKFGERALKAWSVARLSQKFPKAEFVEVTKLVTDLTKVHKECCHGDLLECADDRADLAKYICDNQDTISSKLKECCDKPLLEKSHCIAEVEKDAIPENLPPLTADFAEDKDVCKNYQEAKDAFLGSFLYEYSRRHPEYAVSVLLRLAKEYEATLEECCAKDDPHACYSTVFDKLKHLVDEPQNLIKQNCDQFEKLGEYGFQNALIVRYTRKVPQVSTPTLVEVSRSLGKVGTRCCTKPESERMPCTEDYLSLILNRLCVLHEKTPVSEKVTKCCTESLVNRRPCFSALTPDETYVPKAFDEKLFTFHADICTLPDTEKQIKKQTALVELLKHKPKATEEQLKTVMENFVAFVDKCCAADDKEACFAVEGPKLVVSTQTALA

B1: HF11 单域抗体 (phage-displayed clone, culture supernatant) (VHH)
VHH: QVQLLESGGGLVQPGGSLRLSCAASGVKISYESMAWVRQAPGKGLEWVSSILMQNGSTYYADSVKGRFTISRDNSKNTLYLQMNSLRAEDTAVYYCATTRVRRPANMKYWGQGTLVTVSS
notes: Human heavy-chain single domain antibody on a DP47 framework; Tested in ELISA as phage in culture supernatant; not shown: Myc and VSV-G tags and phage GIII protein of display vector pBG3
Turning to B1, in test [1], the A650 is at most 0.3 A650.

B2: 融合蛋白HF11-FC (expressed from pcDNA3.1 in 293F cells) (Fc fusion)
chain: B1 VHH
notes: The secreted protein was purified on Protein A; not shown: human Fc; residues encoded by the BamHI site between the single domain antibody and Fc; no
With B2, the binding result is given as “binds” in test [2] and “no binding” in test [3].

B3: HB5 单域抗体 (phage-displayed clone, culture supernatant) (VHH)
VHH: QVQLLESGGGLVQPGGSLRLSCAASGVKAINHTMGWVRQAPGKGLEWVSAIRTPDGSTYYADSVKGRFTISRDNSKNTLYLQMNSLRAEDTAVYYCASVGDNAGSSSPPFASWGQGTLVTVSS
notes: Human heavy-chain single domain antibody on a DP47 framework; Tested in ELISA as phage in culture supernatant, detected with an HRP-labelled anti-phage antibody; not shown: Myc and VSV-G tags and phage GIII protein of display vector pBG3
With B3, the binding result in test [4] is recorded as “binds”. The A650 in test [1] was at most 0.3 A650.

B4: HE9 单域抗体 (phage-displayed clone, culture supernatant) (VHH)
VHH: QVQLLESGGGLVQPGGSLRLSCAASGFMVTSEIMGWVRQAPGKGLEWVSTIVANNGSTYYADSVKGRFTISRDNSKNTLYLQMNSLRAEDTAVYYCASPPRRTGVDGTESMHFWGQGTLVTVSS
notes: as for B1
Turning to B4, the binding result in test [4] is listed as “binds”. This molecule came in with an A650 in test [1] of at most 0.3 A650.

These data come from patent CN107674122A (TIANJIN TIMMUNE BIOTECH INC, dated 2018).
